According to patent US20160041181A1, “NMR ASSAY TO SCREEN PROTEIN-PROTEIN INTERACTION INHIBITORS” (RUTGERS, THE STATE UNIVERSITY OF NEW JERSEY, priority 2013, published 2016):
Non-standard residues stand in square brackets, D forms with d. No end group written: not given here.

Columns and labels:
Type in all cases: binding, influenza A/Udorn/307/1972 (H3N2)
NS1A ED [1] = target: T1, NS1A ED (Influenza A virus, UniProt P03495); conditions: 200 uM ED, 0, 50, 100, 200, 300 uM test peptide
T1 construct: made in house; host or cells: Escherichia coli BL21(DE3)-Gold, pET21_NESG vector

NS1A ED [2] = target: T1, NS1A ED; assay: 1D 19F NMR assay of 5FW-labeled NS1A ED with designed peptide
Text: In one exemplary embodiment, the candidate compound is a D-peptide having a sequence dN-Y-F-Y-S-L-F-dQ-G (see FIG. 14). The peptide has the ability to bind NS1A at the site normally used to sequester CPSF30. This same site on NS1A is also responsible for cooperative homodimerization interactions that contribute to an alternative cooperative mechanism by which ED:ED domain interactions contribute to the free energy for binding dsRNA by NS1A.
One-dimensional (1D) ^19F NMR spectroscopy was performed locked and at 20° C. on a Varian INOVA 500 MHz spectrometer equipped with a room temperature 5-mm ^1H/^19F switchable probe at a frequency of 470.18 MHz. All ^19F NMR spectra were acquired using VNMRJ 2.1B and referenced to external neat trichlorofluoromethane, CFCl3. Typical 1D ^19F NMR acquisition parameters were as follows: a 20,000 Hz sweep width (42.5 ppm), a 0.35 s acquisition time, a 5 s relaxation delay time, and a 5.0 μs 90° pulse length.
^19F NMR is an ideal assay for characterizing binding and inhibition of the NS1A protein. Using 1D ^19F NMR, it was possible to identify the binding location of a designed peptide according to its proximity to the nearest ^19F labeled Trp amino acids (see FIG. 16A vs. FIG. 16B).

NS1A ED [3] = target: T1, NS1A ED; assay: Dissociation constant for homodimerization of NS1A ED (dimer-monomer equilibrium); conditions: low salt pH 8 buffer

T1 sequence (P03495 85-215): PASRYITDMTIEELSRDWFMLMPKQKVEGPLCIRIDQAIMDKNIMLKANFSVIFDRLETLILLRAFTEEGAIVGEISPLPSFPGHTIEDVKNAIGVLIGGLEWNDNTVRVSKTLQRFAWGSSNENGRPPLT

Substance	exchange regime at the binding site (15N-1H HSQC) (NS1A ED [1]; binding site)	exchange regime at other residues of the ED (15N-1H HSQC) (NS1A ED [1]; other residues of the ED)	exchange regime of residue W187 (15N-1H HSQC) (NS1A ED [1]; residue W187)	19F chemical shift change of the Trp102 and Trp203 resonances (NS1A ED [2]; Trp102 and Trp203, listed as dAsn-Tyr-Phe-Tyr-Ser-Leu-Phe-dGln-Gly)	19F chemical shift change of the Trp102 and Trp203 resonances (NS1A ED [2]; Trp102 and Trp203, listed as dN-Y-F-Y-S-L-F-dQ-G)	19F chemical shift change of the Trp187 resonance (NS1A ED [2]; Trp187, listed as dAsn-Tyr-Phe-Tyr-Ser-Leu-Phe-dGln-Gly)	19F chemical shift change of the Trp187 resonance (NS1A ED [2]; Trp187, listed as dN-Y-F-Y-S-L-F-dQ-G)	Kd (NS1A ED [3]) [µM]
dAsn-Tyr-Phe-Tyr-Ser-Leu-Phe-dGln-Gly ([dN]YFYSLF[dQ]G) [test peptide, designed D-amino acid capped peptide based on the CPSF30 helix …]	slow-exchange, indicative of strong binding	fast-exchange, or weak binding	slow-exchange indicative of tight binding	no significant impact	no chemical shift perturbations	strong ^19F chemical shift change	strong chemical shift perturbations	
5fW NS1A ED: NS1A effector domain biosynthetically labeled with 5-fluoro-tryptophan								7 ± 5
